Data set [1] deals with T1, human collagen type I (Homo sapiens, UniProt P02452+P08123).
T1 construct: Acid soluble human collagen extracted from placenta; purchased Sigma C7774; host or cells: human placenta (tissue extract)
The data set can be described thus: Dried collagen assay (DCA), percent bound to dried human collagen. Format: binding.
Procedure: Peptides identified using the phage-display protocol were screened using dried collagen assays (DCA) as described in A.-D. below.
Acid soluble human collagen extracted from placenta (Sigma, cat#C7774, lot#083K375) is dissolved in 15 mM HCl (3.5 mg/ml) by vortexing and gently shaking for 3-4 hours at 4° C. The acid soluble collagen is dissolved against PBS, pH 7.4 (three buffer exchanges are used). […] Percent gelation (fibril formation) of the collagen is determined by incubating 10 μM collagen (3.3 mg/ml) at 37° C. for 6 hours. A typical percent gelation is 60%.

Data set [2] has as its target T2, rat collagen type I (Rattus norvegicus, UniProt P02454+P02466).
T2 construct: Rat collagen (acid soluble, type I, rat tail); purchased Upstate USA, Inc 08-115; host or cells: rat tail (tissue extract)
The data set can be described thus: Dried collagen assay (DCA), percent bound to dried rat collagen. Format: binding.
Procedure: For the final assay, a 1:10 volume of 10×PBS (100 mM NaH2PO4, 1.5 M NaCl pH 7.4) is added to the collagen solution (final 1×PBS) and incubated at 37° C. for 2 hours. The gelation is typically 90%.

For data set [3], the system named is perfused Langendorff rat heart. In words: Equilibrium binding to perfused Langendorff rat heart. Here is the method: (§1) After deep anesthesia with pentobarbital (80 mg/kg ip), the chest cavity of a male Sprague Dawley rat (300 g) was opened, retracted and the heart was removed immediately and placed in an ice-cold normal Krebs-Henseleit (K-H) solution (NaCl, 118 mM; KCl, 4.7 mM; CaCl2, 2.5 mM; MgSO4, 1.2 mM; KH2PO4, 1.2 mM; NaHCO3, 25 mM; glucose, 5.5 mM). A K-H buffer filled 20 Gauge needle was inserted into the apex of the heart penetrating into the bottom of the chamber. This was attached to a pressure transducer used to record and monitor heart function. Perfusion pressure (˜60 mmHg) was monitored using a second transducer. The heart was perfused at a constant flow rate of 10-12 mL/min with 37° C. Krebs-Henseleit buffer saturated with a mixture of 95% O2 and 5% CO2 gas. The heart was paced at 300 beats/min.
Two peptide test articles, a high collagen binding peptide (SEQ ID NO: 144) and a low collagen binding peptide (SEQ ID NO: 173), are compared to GdDTPA. The appropriate test article was added to the K-H buffer solution to a total concentration of either 3 or 30 μM. Also added to the K-H buffer was a radiotracer analog of each peptide or GdDTPA. For the peptides, the radiotracer was an aliquot of the appropriate 1-125 labeled peptide derivative (see Example 5 for protocol). For GdDTPA, the tracer added was Tc-99m labeled DTPA. The amount of radioactivity added to the buffer solution was 1-5 μCi.
The heart was perfused for a period of 10 minutes and the perfusion solution was recycled through the heart. The total volume of K-H buffer used was 50-60 mL. After 10 min, the heart was removed from the apparatus and any connective tissue was removed. The heart was opened, fluid in the chambers drained, and the interior blotted dry with filter paper. The heart was then weighed and the radioactivity in the heart measured with a Packard Cobra 5003 Gamma Scintillation counter. An aliquot of the K-H buffer was also weighed and counted. Studies were performed at least in duplicate.
The dual peptide gadolinium tetramer (Compound ID 803) was compared to GdDTPA. Compound ID 803 and GdDTPA were added to the K-H buffer solution to a total concentration of 3 μM. Also added to the K-H buffer was a radiotracer analog of Compound ID 803 or GdDTPA. For Compound ID 803, the radiotracer was an aliquot of the In-111 labeled compound. For GdDTPA, the tracer added was Tc-99m labeled DTPA. The amount of radioactivity added to the buffer solution was 1-5 μCi.

The test system of data set [4] is perfused Langendorff rat heart. In words: Washout kinetics from perfused Langendorff rat heart. The conditions noted are these: perfusion with buffer for 10 minutes. Here is the method: as §1
A Langendorff rat heart preparation was perfused with K-H buffer at a rate of 10-12 mL/min. A one mL solution containing SEQ ID NO: 144 (300 μM), radiolabeled (I-125) SEQ ID NO: 144 (1-6 μCi), GdDTPA (300 μM), and radiolabeled (Tc-99m) DTPA (5-8 μCi) was infused into the heart at a rate of 1 mL/min. After the infusion was finished, the heart was either removed or perfusion was allowed to continue for an additional 10 minutes and then the heart was removed. The perfusion buffer was not recirculated through the heart. After removal of any connective tissue, the heart was opened, fluid in the chambers drained, and the interior blotted dry with filter paper. The heart was then weighed and the radioactivity in the heart measured with a Packard Cobra 5003 Gamma Scintillation counter. […] An aliquot of the K-H buffer was also weighed and counted. Concentration estimates were decay corrected. Studies were performed at least in duplicate.
A Langendorff rat heart preparation was perfused with K-H buffer at a rate of 10-12 mL/min. […] The heart was then weighed and the radioactivity in the heart measured with a Packard Cobra 5003 Gamma Scintillation counter. […] An aliquot of the K-H buffer was also weighed and counted. […]

[5] abbreviates: Table 13, TN-10 peptides with -G- linker, alanine scanning.
Where [6] appears, read: Table 15, TN-10 peptides with -G- linker, D-amino acid scanning.
The mark [7] stands for this setting: Table 4, TN-10 peptides, 5 μM peptide, PBS pH 7.4.
Where [8] appears, read: Table 2, TN-8 peptides, 5 μM peptide, PBS pH 7.4.
Where [9] appears, read: Table 14, TN-6 peptides, D-amino acid scanning.

Bridge positions count the residues as written; N and C are the ends. Square brackets hold non-standard residues; d marks the D form. Ends that are not written are not given here. Glu‑DTPA‑Gd = N-terminal Glu-DTPA-Gd chelate (gadolinium DTPA complex on glutamic acid); bb‑DTPA gadolinium tetramer diacid = not defined here; AEEA = NCCOCCOCC(=O)O

T1 sequence (P02452 162-1218 limits assumed): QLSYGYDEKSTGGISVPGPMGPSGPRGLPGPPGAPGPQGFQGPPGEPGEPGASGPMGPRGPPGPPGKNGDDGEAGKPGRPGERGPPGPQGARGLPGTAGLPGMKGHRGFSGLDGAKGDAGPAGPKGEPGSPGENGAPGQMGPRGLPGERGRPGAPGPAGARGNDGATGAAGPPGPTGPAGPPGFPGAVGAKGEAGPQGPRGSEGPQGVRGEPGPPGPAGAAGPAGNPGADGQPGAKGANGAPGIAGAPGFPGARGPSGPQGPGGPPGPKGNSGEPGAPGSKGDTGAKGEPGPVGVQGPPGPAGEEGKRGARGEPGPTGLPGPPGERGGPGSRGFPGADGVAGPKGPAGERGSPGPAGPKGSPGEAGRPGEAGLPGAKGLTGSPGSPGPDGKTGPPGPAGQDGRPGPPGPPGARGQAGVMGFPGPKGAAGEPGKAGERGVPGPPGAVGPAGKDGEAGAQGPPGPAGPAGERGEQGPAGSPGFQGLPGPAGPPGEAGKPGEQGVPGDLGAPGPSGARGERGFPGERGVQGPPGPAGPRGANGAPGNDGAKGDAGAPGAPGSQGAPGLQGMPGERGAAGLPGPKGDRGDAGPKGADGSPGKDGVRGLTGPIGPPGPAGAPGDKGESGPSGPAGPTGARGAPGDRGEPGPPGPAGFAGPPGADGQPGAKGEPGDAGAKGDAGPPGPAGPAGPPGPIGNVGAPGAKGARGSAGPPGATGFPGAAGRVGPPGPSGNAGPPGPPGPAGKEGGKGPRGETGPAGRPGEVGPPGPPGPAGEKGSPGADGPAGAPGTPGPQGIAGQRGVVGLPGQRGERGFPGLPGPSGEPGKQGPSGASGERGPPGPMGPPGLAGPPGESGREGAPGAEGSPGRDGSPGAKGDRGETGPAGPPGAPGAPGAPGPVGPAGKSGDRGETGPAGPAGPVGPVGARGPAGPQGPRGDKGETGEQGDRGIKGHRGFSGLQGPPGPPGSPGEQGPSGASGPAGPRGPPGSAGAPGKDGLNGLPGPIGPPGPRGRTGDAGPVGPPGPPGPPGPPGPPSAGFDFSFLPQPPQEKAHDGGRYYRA
T1 sequence (P08123 80-1119 limits assumed): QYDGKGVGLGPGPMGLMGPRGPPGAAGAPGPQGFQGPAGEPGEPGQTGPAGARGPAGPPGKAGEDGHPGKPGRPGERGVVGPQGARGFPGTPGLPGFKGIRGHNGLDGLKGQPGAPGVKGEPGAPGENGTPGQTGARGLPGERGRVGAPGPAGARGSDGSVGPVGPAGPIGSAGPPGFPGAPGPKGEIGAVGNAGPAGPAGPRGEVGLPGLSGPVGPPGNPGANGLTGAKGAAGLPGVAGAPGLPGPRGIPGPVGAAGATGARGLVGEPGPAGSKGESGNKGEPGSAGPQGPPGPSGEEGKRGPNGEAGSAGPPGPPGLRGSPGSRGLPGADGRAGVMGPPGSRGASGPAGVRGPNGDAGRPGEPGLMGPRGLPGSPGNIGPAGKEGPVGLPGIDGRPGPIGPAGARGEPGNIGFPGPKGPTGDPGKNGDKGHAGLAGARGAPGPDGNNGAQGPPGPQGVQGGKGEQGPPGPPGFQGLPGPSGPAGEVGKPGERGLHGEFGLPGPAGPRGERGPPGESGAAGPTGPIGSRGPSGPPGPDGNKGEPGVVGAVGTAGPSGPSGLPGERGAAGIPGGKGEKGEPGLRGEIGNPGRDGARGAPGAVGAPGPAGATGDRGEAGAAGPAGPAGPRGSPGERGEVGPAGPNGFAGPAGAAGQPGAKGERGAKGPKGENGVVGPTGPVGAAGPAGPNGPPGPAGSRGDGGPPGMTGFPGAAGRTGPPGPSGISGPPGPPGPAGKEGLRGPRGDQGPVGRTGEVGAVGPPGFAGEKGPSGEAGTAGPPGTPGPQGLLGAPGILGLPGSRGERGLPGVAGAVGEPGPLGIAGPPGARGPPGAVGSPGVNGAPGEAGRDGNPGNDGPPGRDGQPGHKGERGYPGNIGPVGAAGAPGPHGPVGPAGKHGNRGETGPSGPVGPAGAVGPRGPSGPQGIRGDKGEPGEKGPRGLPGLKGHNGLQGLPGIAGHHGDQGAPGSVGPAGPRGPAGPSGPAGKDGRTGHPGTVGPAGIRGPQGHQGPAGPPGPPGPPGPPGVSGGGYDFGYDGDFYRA
T2 sequence (P02454 152-1207 limits assumed): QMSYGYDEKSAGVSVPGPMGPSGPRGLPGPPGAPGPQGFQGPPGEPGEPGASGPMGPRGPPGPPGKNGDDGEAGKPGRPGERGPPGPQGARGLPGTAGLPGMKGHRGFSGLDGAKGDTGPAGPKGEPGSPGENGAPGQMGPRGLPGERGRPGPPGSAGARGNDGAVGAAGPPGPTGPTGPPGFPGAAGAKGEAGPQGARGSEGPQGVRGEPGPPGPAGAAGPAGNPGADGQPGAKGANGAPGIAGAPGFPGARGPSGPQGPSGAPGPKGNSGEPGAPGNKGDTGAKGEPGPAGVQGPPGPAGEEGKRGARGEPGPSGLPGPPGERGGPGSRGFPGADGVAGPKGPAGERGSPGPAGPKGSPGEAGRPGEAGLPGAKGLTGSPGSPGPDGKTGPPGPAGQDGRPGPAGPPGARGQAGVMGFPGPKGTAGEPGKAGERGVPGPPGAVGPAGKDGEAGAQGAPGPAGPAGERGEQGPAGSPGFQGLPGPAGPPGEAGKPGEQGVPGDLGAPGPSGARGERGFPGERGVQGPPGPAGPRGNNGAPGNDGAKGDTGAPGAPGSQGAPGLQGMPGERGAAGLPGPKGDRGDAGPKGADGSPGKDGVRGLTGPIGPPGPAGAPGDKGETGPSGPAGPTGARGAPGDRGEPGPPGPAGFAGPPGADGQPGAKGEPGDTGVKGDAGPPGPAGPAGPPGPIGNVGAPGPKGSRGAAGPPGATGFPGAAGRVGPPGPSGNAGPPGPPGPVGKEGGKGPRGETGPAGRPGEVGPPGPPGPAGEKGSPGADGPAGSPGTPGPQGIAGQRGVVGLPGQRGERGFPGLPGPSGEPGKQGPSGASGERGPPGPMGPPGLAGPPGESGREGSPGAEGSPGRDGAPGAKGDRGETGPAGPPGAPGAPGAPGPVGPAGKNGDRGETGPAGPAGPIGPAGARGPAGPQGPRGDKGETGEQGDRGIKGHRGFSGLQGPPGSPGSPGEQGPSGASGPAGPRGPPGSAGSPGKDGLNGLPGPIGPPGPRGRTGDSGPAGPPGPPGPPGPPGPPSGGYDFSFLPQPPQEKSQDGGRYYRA
T2 sequence (P02466 86-1125 limits assumed): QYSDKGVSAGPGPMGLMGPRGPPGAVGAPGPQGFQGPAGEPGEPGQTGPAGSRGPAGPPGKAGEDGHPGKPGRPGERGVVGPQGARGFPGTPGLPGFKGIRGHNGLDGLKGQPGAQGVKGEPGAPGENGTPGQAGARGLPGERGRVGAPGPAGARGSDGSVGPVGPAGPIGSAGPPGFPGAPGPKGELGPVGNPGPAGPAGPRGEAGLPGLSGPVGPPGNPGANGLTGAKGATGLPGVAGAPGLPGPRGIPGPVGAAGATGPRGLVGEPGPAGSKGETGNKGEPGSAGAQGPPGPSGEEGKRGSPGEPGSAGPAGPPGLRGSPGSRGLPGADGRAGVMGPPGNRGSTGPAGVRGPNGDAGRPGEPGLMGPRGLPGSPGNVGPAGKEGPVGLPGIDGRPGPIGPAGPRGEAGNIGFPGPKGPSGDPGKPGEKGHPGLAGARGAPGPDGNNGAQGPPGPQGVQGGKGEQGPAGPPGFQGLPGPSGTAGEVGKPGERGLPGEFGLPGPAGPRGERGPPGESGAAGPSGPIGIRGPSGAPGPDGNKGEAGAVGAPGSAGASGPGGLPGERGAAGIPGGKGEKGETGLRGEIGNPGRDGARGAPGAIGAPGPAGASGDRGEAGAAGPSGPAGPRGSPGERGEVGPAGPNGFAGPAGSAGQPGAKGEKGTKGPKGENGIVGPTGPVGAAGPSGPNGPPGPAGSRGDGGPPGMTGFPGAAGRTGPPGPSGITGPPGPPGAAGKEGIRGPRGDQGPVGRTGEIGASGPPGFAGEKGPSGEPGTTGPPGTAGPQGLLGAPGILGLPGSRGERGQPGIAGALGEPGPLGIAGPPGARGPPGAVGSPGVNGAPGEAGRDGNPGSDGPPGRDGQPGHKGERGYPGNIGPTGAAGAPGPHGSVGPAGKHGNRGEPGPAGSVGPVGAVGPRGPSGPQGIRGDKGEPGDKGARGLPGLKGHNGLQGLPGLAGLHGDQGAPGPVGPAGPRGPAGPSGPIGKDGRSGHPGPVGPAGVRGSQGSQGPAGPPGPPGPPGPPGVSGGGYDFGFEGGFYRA

As for “147 (QWTCSGDEYTAHCNYE; disulfide 4-13 (inferred); not fully specified (C-terminus)) [compound 147]”, in data set [1] (setting [5]), the “% Collagen Binding Dried Human” value was determined as 5%.

As to 165 (QWTCSGDEYTWHCNYE) [compound 165], the “% Collagen Binding Dried Human” value in data set [1] (setting [6]) was found to be 2%. The “% Collagen Binding Dried Rat” value in data set [2] (setting [6]) is 4%.

As for 39 (GWQCSGDASVWNCDWI) [compound 39], the “Dried Human Collagen Binding” value in data set [1] (setting [7]) was 6%.

On to “190 ({Glu‑DTPA‑Gd-AEEA}-GQWTCSGDEYTWHCNY[dE]-NH2; disulfide 5-14 (inferred); also: gadolinium complex of Glu-DTPA) [compound 190]”, for which the “% Binding Collagen I Rat” value in data set [2] (Table 17, chelate conjugates) is given as 5%.

38 (GWSCHGDAADWPCQWS) [compound 38]: in data set [1] (setting [7]), the “Dried Human Collagen Binding” value came to 6%.

With `CC(C)C[C@H](NC(=O)[C@@H]1CSSC[C@H](NC(=O)[C@H](Cc2c[nH]cn2)NC(=O)[C@H](Cc2c[nH]c3ccccc23)NC(=O)[C@H](CCC(N)=O)NC(=O)CNC(=O)CC[C@H](NC(=O)[C@H](CNC(=O)[C@@H](CN(CCN(CC(=O)O)CC(=O)O)CC(=O)O)N(CC(=O)O)CC(=O)O)NC(=O)[C@@H](CN(CCN(CC(=O)O)CC(=O)O)CC(=O)O)N(CC(=O)O)CC(=O)O)C(=O)NCCCCCCNC(=O)[C@H](CCC(=O)NCC(=O)N[C@@H](CCC(N)=O)C(=O)N[C@@H](Cc2c[nH]c3ccccc23)C(=O)N[C@@H](Cc2c[nH]cn2)C(=O)N[C@H]2CSSC[C@@H](C(=O)N[C@@H](CC(C)C)C(=O)N[C@@H](Cc3ccc(O)cc3)C(=O)NCC(N)=O)NC(=O)[C@H](Cc3ccc(O)cc3)NC(=O)[C@H](Cc3c[nH]cn3)NC(=O)[C@H](Cc3c[nH]cn3)NC(=O)[C@@H]3CCCN3C(=O)[C@H](Cc3ccccc3)NC(=O)[C@H](CO)NC(=O)[C@H]([C@@H](C)O)NC(=O)[C@H]([C@@H](C)O)NC2=O)NC(=O)[C@H](CNC(=O)[C@@H](CN(CCN(CC(=O)O)CC(=O)O)CC(=O)O)N(CC(=O)O)CC(=O)O)NC(=O)[C@@H](CN(CCN(CC(=O)O)CC(=O)O)CC(=O)O)N(CC(=O)O)CC(=O)O)C(=O)N[C@@H]([C@@H](C)O)C(=O)N[C@@H]([C@@H](C)O)C(=O)N[C@@H](CO)C(=O)N[C@@H](Cc2ccccc2)C(=O)N2CCC[C@H]2C(=O)N[C@@H](Cc2c[nH]cn2)C(=O)N[C@@H](Cc2c[nH]cn2)C(=O)N[C@@H](Cc2ccc(O)cc2)C(=O)N1)C(=O)N[C@@H](Cc1ccc(O)cc1)C(=O)NCC(N)=O` [Comp ID 803], the “Heart” value in data set [3] (10 min recirculating perfusion, 3 μM in K-H buffer, radiotracer counting) was found to be 9.1 ± 1.8 nmol/g. Moreover, in data set [3] (10 min recirculating perfusion, buffer 3.0 μM), the “Heart:Buffer” value was 3.02 ± 0.62.

169 (QWTCSGDEYTWHCNYE) [compound 169]: the “% Collagen Binding Dried Rat” value in data set [2] (setting [6]) was 4%.

Regarding 166 (QWTCSGDEYTWHCNYE) [compound 166], in data set [1] (setting [6]), the “% Collagen Binding Dried Human” value turned out to be 2%. Moreover, the “% Collagen Binding Dried Rat” value in data set [2] (setting [6]) is recorded as 3%.

Turning to “137 (YHACYQAGCWAW; disulfide 4-9 (inferred); not fully specified (C-terminus)) [compound 137]”, the “% Collagen Binding Dried Rat” value in data set [2] (Table 12, TN-6 peptides, alanine scanning) was determined as 7%.

On to “113 (FSECVWVNAYQCEYF; disulfide 4-12 (inferred); not fully specified (C-terminus)) [compound 113]”, for which the “Dried Human Collagen Binding” value in data set [1] (Table 8, TN-9 peptides) is 3%.

Regarding 175 (QWTCSGDEYTWHCNYE) [compound 175], the “% Collagen Binding Dried Human” value in data set [1] (setting [6]) is 2%. In addition, in data set [2] (setting [6]), the “% Collagen Binding Dried Rat” value came out at 2%.

With “112 (AKACSVHDEFGCLIS; disulfide 4-12 (inferred); not fully specified (C-terminus)) [compound 112]”, the “Dried Human Collagen Binding” value in data set [1] (Table 8, TN-9 peptides) amounted to 9%.

As for 174 (QWTCSGDEYTWHCNYE) [compound 174], the “% Collagen Binding Dried Human” value in data set [1] (setting [6]) amounted to 5%.

With 176 (QWTCSGDEYTWHCNYE) [compound 176], the “% Collagen Binding Dried Human” value in data set [1] (setting [6]) turned out to be 2%. For the same molecule, in data set [2] (setting [6]), the “% Collagen Binding Dried Rat” value came out at 2%.

Turning to 3 (PWWCHEMPSMCFGF) [compound 3], the “Dried Human Collagen Binding” value in data set [1] (setting [8]) stood at 2%.

Take 37 (LWNCHGTDANWKCVLN) [compound 37]: the “Dried Human Collagen Binding” value in data set [1] (setting [7]) was determined as 7%.

In the case of 171 (QWTCSGDEYTWHCNYE) [compound 171], in data set [2] (setting [6]), the “% Collagen Binding Dried Rat” value is 6%.

Consider 173 (QWTCSGDEYTWHCNYE) [compound 173], for which, in data set [1] (setting [6]), the “% Collagen Binding Dried Human” value is listed as 5%. Besides, the “% Collagen Binding Dried Rat” value in data set [2] (setting [6]) is on record as 4%.

167 (QWTCSGDEYTWHCNYE) [compound 167]: the “% Collagen Binding Dried Human” value in data set [1] (setting [6]) is 4%.

For the molecule “Compound ID 803: dual peptide gadolinium tetramer; bb-DTPA tetramer diacid coupled to N-terminus of SEQ ID NO. 264 peptide ({bb‑DTPA gadolinium tetramer diacid}-GQWHCTTSFPHHYCLYG; disulfide 5-14 (inferred); not fully specified (C-terminus); printed as G-Q-W-H-C-T-T-S-F-P-H-H-Y-C-L-Y-G; reading uncertain; also: dual peptide tetramer: two peptide chains on one diacid, Gd chelated) [dual peptide gadolinium tetramer; 264 peptide]”, in data set [4], the “amount remaining in heart at 10 minutes after infusion relative to 0 minutes post infusion” value amounted to 54%. The “heart uptake relative to GdDTPA” value in data set [3] (10 minutes) is on record as “about 7 times”.

Regarding 163 (YHACYQAGCWIW) [compound 163], the “% Collagen Binding Dried Rat” value in data set [2] (setting [9]) was 53%.

For the molecule 168 (QWTCSGDEYTWHCNYE) [compound 168], the “% Collagen Binding Dried Human” value in data set [1] (setting [6]) is 3%. In addition, the “% Collagen Binding Dried Rat” value in data set [2] (setting [6]) was found to be 2%.

As for “142 (QWTCSADEYTWHCNYE; disulfide 4-13 (inferred); not fully specified (C-terminus)) [compound 142]”, the “% Collagen Binding Dried Rat” value in data set [2] (setting [5]) is given as 6%.

“130 (WWACQKGRHDWEKCRWL; disulfide 4-14 (inferred); not fully specified (C-terminus)) [compound 130]”: in data set [1] (Table 11, TN-11 peptides), the “Dried Human Collagen Binding” value is listed as 32%.

36 (SWSCGGDHNAWKCQYS) [compound 36]: the “Dried Human Collagen Binding” value in data set [1] (setting [7]) is given as 7%.

For 65 (KWECVHTKGEWYCETK) [compound 65], the “Dried Human Collagen Binding” value in data set [1] (setting [7]) was 7%.

Consider 159 (YHACYQAGCWIW) [compound 159], for which the “% Collagen Binding Dried Human” value in data set [1] (setting [9]) is reported as 7%.

For the molecule 2 (WGWCEWAQNNCWNY) [compound 2], the “Dried Human Collagen Binding” value in data set [1] (setting [8]) is 14%.

Values taken from patent US9386938B2, “Methods for collagen imaging” (Collagen Medical, LLC, priority 2005, dated 2016).
